Key:
[1] = tested on: Pfg binding to fibrinogen; assay: Inhibition of biotinylated Pfg binding to coated fibrinogen; set-up: species or system Propionibacterium acnes; conditions: biotinylated Pfg pretreated with increasing amount of recombinant peptide 1 h at 37° C.; fibrinogen coated 25 μg per well
Description: FIG. 9: Dose-dependent inhibition of biotinylated Pfg binding to fibrinogen by fibrinogen-derived peptide. Biotinylated PFg (0.4 mg) was pretreated with increasing amount of recombinant peptides Fg1 (♦), Fg2 (▪) or BSA as control (●) for 1 h at 37° C., and the binding activity to coated fibrinogen on polystyrene plate (25 μg per well) was evaluated. Results are expressed as mean±SD. Each point was done in quadruplet.
Since it has been shown that only Fg1 was able to recognize Pfg, biotinylated Pfg was pre-treated with various concentrations of purified Fg1 and tested its ability to recognize immobilized fibrinogen. Fg2 and BSA were used as neative controls (FIG. 9).

MRC5 cells = assay: IL-8 production by P. acnes-stimulated MRC5 (ELISA); type: cell-based, human; conditions: 0.87 to 7 μM
Description: FIG. 15: Dose-dependent inhibition of IL-8 production by fibroblast stimulated by P. acnes pre-treated by recombinant peptide. MRC5 cells were incubated for 18 h with P. acnes RON strain at a concentration adjusted to 0.2 of absorbance at 600 nm (blue bar) and with P. acnes pretreated with recombinant peptide Fg1 (light gray bar) and Fg2 (dark gray bar). IL-8 concentration was measured by ELISA as described in Materials and Methods. Control experiment was done on unstimulated HaCaT cell (red bar). Data are means±S.D. of three separate experiments. Statistical significance is indicated by * (P<0.05), ** (P<0.01), *** (P<0.001), and **** (P<0.0001), respectively.
For experiences of stimulation with P. acnes, cells were incubated with the P. acnes suspension adjusted at the appropriate concentration, pre-treated for 1 h at 37° C. or not with fibrinogen recombinant peptides Fg1 and Fg2 at the concentrations 0.87, 1.75, 3.5 or 7 μM for the desired period of time at 37° C. in 5% CO2.
Human IL-1ß, IL-8, IL-12, hBD-2, and TNF-α protein concentration was measured in the supernatants of stimulated cells using various ELISA Set kits (Ready-Set-Go kit from eBioscience for acne experiments, and for psoriasis experiments the Duo set IL-8 kit from R&D Systems and the BD-2 Human Development (hBD-2) from Peprotech) according to the manufacturer's instructions. We used serial dilutions of recombinant human IL-1ß, IL-8, IL-12 and TNF-α for standard curve. The optical density was determined at 450 nm at a wavelength correction of 540 nm.
To assess the efficacy of Fg1 recombinant peptide, the production of O2^∘− and H2O2 by HaCaT cells NHDK, THP-1, MRC5 and HDF stimulated by pretreated P. acnes strains 6919, RON and PIE was measured. The amount of ROS produced was compared to that produced by the stimulated cells with untreated bacteria. Production baseline was obtained by measuring ROS on unstimulated cells. The production of IL-1ß, IL-8, IL-12 and TNF-α was also measured in all conditions cited above. The measurement of the production of ROS is performed by spectrofluorimetry in the presence of specific fluorochromes directly on the monolayer cell. Measurement of cytokine production was performed in parallel on the cell culture supernatant.
Two sets of experiments were implemented: 1) The cells were stimulated (18 h at 37° C.) by P. acnes strains previously pretreated with Fg1 and Fg2 peptides at the final concentrations ranging from 0.87 to 7 μM for 1 h at 37° C.; and 2) The cells were pretreated first with Fg1 and Fg2 peptides at the final concentrations ranging from 0.87 to 7 μM for 24 h at 37° C. and stimulated (18 h at 37° C.) by P. acnes strains.

B1: MKRMVSWSFHKLKTMKHLLLLLLCVFLVKSQGVNDNEEGFFSARGHRPLDKKREEAPSLRPAPPPISGGGYRARPAKAAATQKKVERKAPDAGGCLHADPDLGVLC (protein)
chain: MKRMVSWSFHKLKTMKHLLLLLLCVFLVKSQGVNDNEEGFFSARGHRPLDKKREEAPSLRPAPPPISGGGRARPAKAAATQKKVERKAPDAGGCLHADPDLGVLCMKRMVSWSFHKLKTMKHLLLLLLCVFLVKSQGVNDNEEGFFSARGHRPLDKKREEAPSLRPAPPPISGGGYRARPAKAAATQKKVERKAPDAGGCLHADPDLGVLC
modifications: GST fusion; fragment Fg1
notes: fragment of Bß chain of human fibrinogen having 106 amino acids; recombinant GST-fused peptide expressed in E. coli
pos: Inhibition of Interleukine 8 (IL-8) production (MRC5 cells; P. acnes 6919, set I, bacteria first pretreated) | Inhibition of Interleukine 8 (IL-8) production (MRC5 cells; P. acnes 6919, set II, cells first pretreated) | Inhibition of Interleukine 8 (IL-8) production (MRC5 cells; P. acnes PIE, set I, bacteria first pretreated) | Inhibition of Interleukine 8 (IL-8) production (MRC5 cells; P. acnes PIE, set II, cells first pretreated) | Inhibition of Interleukine 8 (IL-8) production (MRC5 cells; P. acnes RON, set I, bacteria first pretreated) | Inhibition of Interleukine 8 (IL-8) production (MRC5 cells; P. acnes RON, set II, cells first pretreated)
dramatically decreased: Inhibition of the recognition between Pfg and human fibrinogen [1]
